The text below walks through data of patent US20240025996A1 (FRED HUTCHINSON CANCER CENTER, published 2024).

This test addresses T1, soluble ROR1 ectodomain (UniProt Q01973 30-406).
T1 construct: extracellular domain; also called ROR1-A647
Put plainly: method not stated in the legend (FIGS. 1A-1C).

T1 sequence (Q01973 30-406 limits assumed): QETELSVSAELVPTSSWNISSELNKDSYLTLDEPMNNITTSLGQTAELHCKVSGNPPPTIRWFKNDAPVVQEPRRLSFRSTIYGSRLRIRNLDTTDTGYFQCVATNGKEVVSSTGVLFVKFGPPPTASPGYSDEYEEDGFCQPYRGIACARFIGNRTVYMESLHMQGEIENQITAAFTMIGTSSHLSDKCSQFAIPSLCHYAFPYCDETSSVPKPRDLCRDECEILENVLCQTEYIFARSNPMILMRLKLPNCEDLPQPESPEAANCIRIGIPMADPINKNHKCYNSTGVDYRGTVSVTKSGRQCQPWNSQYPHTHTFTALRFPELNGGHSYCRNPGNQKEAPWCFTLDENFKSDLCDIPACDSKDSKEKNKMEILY

B1: Nb11 WT (VHH)
VHH: QVKLVQSGGGLVQAGGSLRLSCAASGSIFSSASMGWYRQAPGKPREQVASITRDGNTYYEDDVKGRFTISRDNARSTGYLQMNSLTPEDTGVYYCNVYQLGFYDKWGQGTQVIVSS
notes: also called free Nb11
A word on the Kd: it is the free concentration of one partner at which half of the binding sites on the other are occupied at equilibrium, for simple one-to-one binding. A higher Kd goes with lower affinity. As for B1, the Kd is 2 nM.

B2: Nb14 WT (VHH)
VHH: QVKLVQSGGGLVQTGGSLRLSCAASEITFDMYSMGWYREAPGKARDAVASITNRGNTYYADSVKGRFTISRDNAKKTMYLQMNSLKPEDTAVYYCNVYRTGFSDYWGQGTQVTVSS
notes: also called free Nb14
The molecule B2 showed a Kd of 2 nM.
